Reference: patent publication US20060177907A1 (University of California, published 2006)
Like-named read-outs stand apart in the source and are kept apart here.

B2: HER3-ECD^I-II (residues 20-329), recombinant domains I and II of HER3 expressed in Drosophila S2 cells (receptor, not shown: small tags and cut ends)
chain: SEVGNSQAVCPGTLNGLSVTGDAENQYQTLYKLYERCEVVMGNLEIVLTGHNADLSFLQWIREVTGYVLVAMNEFSTLPLPNLRVVRGTQVYDGKFAIFVMLNYNTNSSHALRQLRLTQLTEILSGGVYIEKNDKLCHMDTIDWRDIVRDRDAEIVVKDNGRSCPPCHEVCKGRCWGPGSEDCQTLTKTICAPQCNGHCFGPNPNQCCHDECAGGCSGPQDTDCFACRHFNDSGACVPRCPQPLVYNKLTFQLEPNPHTKYQYGGVCVASCPHNFVVDQTSCVRACPPDKMEVDKNGLKMCEPCGGLCPK
notes: Monomer by light scattering and ultracentrifugation; The N-terminal Drosophila leader comes from the vector; the protein is secreted; also called HER3^I-II; H3 I-II
B3: HER3^I-II V110A (receptor, not shown: small tags and cut ends)
chain: SEVGNSQAVCPGTLNGLSVTGDAENQYQTLYKLYERCEVVMGNLEIVLTGHNADLSFLQWIREVTGYVLVAMNEFSTLPLPNLRVVRGTQAYDGKFAIFVMLNYNTNSSHALRQLRLTQLTEILSGGVYIEKNDKLCHMDTIDWRDIVRDRDAEIVVKDNGRSCPPCHEVCKGRCWGPGSEDCQTLTKTICAPQCNGHCFGPNPNQCCHDECAGGCSGPQDTDCFACRHFNDSGACVPRCPQPLVYNKLTFQLEPNPHTKYQYGGVCVASCPHNFVVDQTSCVRACPPDKMEVDKNGLKMCEPCGGLCPK
notes: also called H3^I-II V110A
B4: trx-hrg, thioredoxin-heregulin fusion with a C-terminal His and S-tag (ligand)
chain: SHLVKCAEKEKTFCVNGGECFMVKDLSNPSRYLCKCPNEFTGDRCQNYVMASFYKHLGIEF
notes: Made as in Landgraf et al. 1998; also called S-tagged hrg; immobilized hrg; not shown: thioredoxin; C-terminal His tag and S-tag
B5: HER3^I-II N44A (receptor, not shown: small tags and cut ends)
chain: SEVGNSQAVCPGTLNGLSVTGDAEAQYQTLYKLYERCEVVMGNLEIVLTGHNADLSFLQWIREVTGYVLVAMNEFSTLPLPNLRVVRGTQVYDGKFAIFVMLNYNTNSSHALRQLRLTQLTEILSGGVYIEKNDKLCHMDTIDWRDIVRDRDAEIVVKDNGRSCPPCHEVCKGRCWGPGSEDCQTLTKTICAPQCNGHCFGPNPNQCCHDECAGGCSGPQDTDCFACRHFNDSGACVPRCPQPLVYNKLTFQLEPNPHTKYQYGGVCVASCPHNFVVDQTSCVRACPPDKMEVDKNGLKMCEPCGGLCPK
notes: also called H3 I-II Mutant N44A

Assays:
[1] = target: T1, HER3-ECD^I-IV, soluble extracellular domains of recombinant HER3 purified from Chinese hamster ovary cells (human, UniProt P21860 20-643); assay: method not given; compared with the Kd of HER3-ECD^I-II (68 nM); form of hrg not stated
T1 construct: also called nonproteolyzed HER3-ECD^I-IV

[2] = target: T2, HER3^I-IV E64A (human, UniProt P21860 20-643); assay: native gel mobility shift
T2 construct: also called H3^I-IV E64A
Protocol: (§1) FIG. 12. […] HER3^I-IV and the HER3^I-IV mutants were analyzed on a native Phast gel (10-15%) in the absence (−) and presence (+) of equimolar hrg. The HER3^{I-IV E64A} was also analyzed in the absence (lane 2) and presence (lane 4) of hrg. Formation of a hrg-HER3^I-IV complex is observed with HER3^I-IV, but not with […], B, HER3^I-IV and HER3^{I-IV E64A} were analyzed in a “pull down assay” in which S-tagged hrg was immobilized on S-protein resin (lanes 4-9) and HER3^I-IV could be specifically eluted with 1 μM hrg and detergent (lane 6 and 8), but HER3^{I-IV E64A} could not be eluted with PBS or 1 μM hrg (lanes 5 and 7). A small amount of HER3^{I-IV E64A} could be eluted with detergent (lane 9) which was probably due to some binding or non-specific interaction.
To determine the effects of cleavage of HER3^I-IV on its ability to bind hrg, a gel mobility shift assay was performed. […] (FIG. 12A).

[3] = target: T1, HER3-ECD^I-IV, soluble extracellular …; assay: method not given; given as the reference for the SPR value of HER3-ECD^I-II (68 nM, trx-hrg immobilized); form of hrg not stated
[4] = target: HER3^FL E64A (residues 20-1342 with a mutation of E64A), transiently expressed on COS 7 cells (human, UniProt P21860 20-1342); assay: specific binding of radio-iodinated hrg to COS 7 cells transiently expressing the HER3 construct
[5] = target: HER3^II-CTD (residues 184-1342), transiently expressed on COS 7 cells (human, UniProt P21860 184-1342); assay: as above
[6] = target: B4; assay: SPR, trx-hrg immobilized (68 nM) compared with HER3-ECD^I-IV (2.3 nM)
Protocol: (§2) Trx-hrg (13 μM) in MES buffer (100 mM pH 6.0) was immobilized on a BIAcore CM5 chip using standard N-hydroxysuccinimide/1-ethyl-3-(3-dimethylaminopropyl)carbodiimide amine-coupling chemistry. The surface of the chip was blocked with ethanolamine and could be regenerated with 5.0 M NaCl and washes with running buffer (PBS+surfactant). HER3-ECD^I-II (filtered through a 0.1-μm filter unit (Millipore, Bedford, Mass.)) in running buffer was applied to the chip at various concentrations (in triplicate) to determine the dissociation constant. Data were analyzed with the BIAevaluation software. Competition experiments were carried out using hrg at an equimolar concentration to HER3-ECD^I-II.
(§3) To further confirm that HER3-ECD^I-II binds hrg, we analyzed the interaction by SPR (BIAcore). Trx-hrg fusion protein was immobilized on a BIAcore chip for these measurements. […] This interaction could be inhibited by stoichiometric concentrations of hrg.

[7] = target: B4; assay: SPR (BIAcore), immobilized trx-hrg
[8] = target: B4; assay: SPR (BIAcore), immobilized trx-hrg
[9] = target: HER3^I-II V66A (human, UniProt P21860 20-329); assay: SPR (BIAcore), immobilized trx-hrg
[10] = target: T3, HER3^I-II K51A (human, UniProt P21860 20-329); assay: SPR (BIAcore), immobilized trx-hrg
T3 construct: also called H3^I-II K51A

[11] = target: T4, HER3^I-II E43A (human, UniProt P21860 20-329); assay: SPR (BIAcore), immobilized trx-hrg
T4 construct: also called H3 I-II Mutant E43A

[12] = target: B5; assay: SPR (BIAcore), immobilized trx-hrg
[13] = target: B3; assay: SPR (BIAcore), immobilized trx-hrg
[14] = target: B2; assay: SPR (BIAcore), trx-hrg immobilized, HER3-ECD^I-II in solution
Protocol: as §2, §3

[15] = target: T2, HER3^I-IV E64A; assay: pull-down on trx-hrg-coupled S-protein agarose
Protocol: as §1
To confirm that HER3^I-IVE64A has decreased binding affinity for hrg, we used a “pull down” assay in which we measured the HER3^I-IV and HER3^I-IVE64A that could be dissociated from immobilized thioredoxin-heregulin (trx-hrg) by the addition of hrg. Using trx-hrg coupled S-protein agarose, HER3^I-IV was eluted with hrg and detergent (FIG. 12B, lanes 6 and 8), but not with PBS (FIG. 12B, lane 4). No HER3^{I-IV E64A} could be recovered by elution with PBS, hrg or detergent (FIG. 12B, lanes 5, 7 and 9).

T4 sequence (P21860 20-329 E43A): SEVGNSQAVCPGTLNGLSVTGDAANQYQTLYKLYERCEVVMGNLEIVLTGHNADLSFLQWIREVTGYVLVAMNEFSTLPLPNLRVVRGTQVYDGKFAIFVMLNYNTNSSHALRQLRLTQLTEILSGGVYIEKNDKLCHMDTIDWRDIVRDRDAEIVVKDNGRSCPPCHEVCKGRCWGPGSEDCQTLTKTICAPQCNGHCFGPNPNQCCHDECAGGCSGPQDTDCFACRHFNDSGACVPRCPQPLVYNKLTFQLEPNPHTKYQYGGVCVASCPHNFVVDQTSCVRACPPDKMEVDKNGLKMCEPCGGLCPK
Chain of HER3^II-CTD (residues 184-1342), transiently expressed on COS 7 cells (P21860 184-1342 E560G/E1064G): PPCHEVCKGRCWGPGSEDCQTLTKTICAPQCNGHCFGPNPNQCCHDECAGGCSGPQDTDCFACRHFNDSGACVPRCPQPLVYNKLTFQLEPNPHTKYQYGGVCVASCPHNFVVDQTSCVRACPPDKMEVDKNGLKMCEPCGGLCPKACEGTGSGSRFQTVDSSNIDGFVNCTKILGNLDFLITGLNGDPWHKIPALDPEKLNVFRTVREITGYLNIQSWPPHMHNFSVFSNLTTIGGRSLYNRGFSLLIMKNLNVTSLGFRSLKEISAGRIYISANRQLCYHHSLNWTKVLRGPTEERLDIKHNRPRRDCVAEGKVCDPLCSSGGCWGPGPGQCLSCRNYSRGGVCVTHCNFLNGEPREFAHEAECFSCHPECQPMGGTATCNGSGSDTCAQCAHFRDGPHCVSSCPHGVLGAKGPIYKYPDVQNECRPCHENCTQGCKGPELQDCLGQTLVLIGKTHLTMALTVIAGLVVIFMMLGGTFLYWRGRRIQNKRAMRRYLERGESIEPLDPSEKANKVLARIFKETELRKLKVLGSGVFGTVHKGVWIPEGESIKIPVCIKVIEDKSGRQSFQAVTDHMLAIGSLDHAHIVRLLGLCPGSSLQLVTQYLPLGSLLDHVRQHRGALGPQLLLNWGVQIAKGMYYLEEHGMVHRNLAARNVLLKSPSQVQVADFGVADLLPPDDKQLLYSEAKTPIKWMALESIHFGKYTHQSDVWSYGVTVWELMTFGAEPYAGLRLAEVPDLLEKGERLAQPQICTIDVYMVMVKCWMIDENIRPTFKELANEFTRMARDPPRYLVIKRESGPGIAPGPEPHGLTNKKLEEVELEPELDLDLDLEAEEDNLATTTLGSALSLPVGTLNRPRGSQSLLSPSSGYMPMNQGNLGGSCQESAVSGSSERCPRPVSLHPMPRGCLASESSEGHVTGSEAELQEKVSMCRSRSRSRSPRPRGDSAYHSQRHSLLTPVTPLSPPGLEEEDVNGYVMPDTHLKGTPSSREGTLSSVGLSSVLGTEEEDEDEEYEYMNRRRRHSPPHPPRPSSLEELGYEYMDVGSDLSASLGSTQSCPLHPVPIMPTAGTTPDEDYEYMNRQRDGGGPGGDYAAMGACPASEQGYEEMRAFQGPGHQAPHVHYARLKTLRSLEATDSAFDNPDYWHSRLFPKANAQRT

B1: hrg, 60-residue EGF-like domain of human heregulin beta1 (residues 177-237) (ligand)
chain: SHLVKCAEKEKTFCVNGGECFMVKDLSNPSRYLCKCPNEFTGDRCQNYVMASFYKHLGIEF
notes: also called I^25 hrg
B1 was tested, and the Kd [1] was 0.0019 µM, the binding result [2] was “no binding (tested: 1:1 molar ratio)” and the Kd [3] was 0.0023 µM. B1: no binding [4]; no binding [5].

B2 was tested, and the “fold lower binding affinity than HER3-ECD^I-IV” value [6] was 30 fold.

B3 was tested, and the “fold increase in binding affinity (against HER3^I-II)” value [7] was 5 fold and the “fold increase in binding affinity (against HER3^I-II)” value [8] was 4 fold.

B4 gave a Kd [9] of 0.0605 µM, a Kd [10] of 0.063 µM and a Kd [11] of 0.063 µM. It also gave a Kd [12] of 0.0955 µM, a Kd [13] of 0.0154 µM and a Kd [14] of 0.068 µM. The koff [14] was 0.00727 s⁻¹, the kon [14] was 107000 M⁻¹ s⁻¹ and the binding result [15] was “no binding”.

In the case of B5, the “fold decrease in binding affinity (against HER3^I-II)” value [8] is reported as 1.5 fold.
